Measurements from patent US20170218057A1.

Experiments:
[1] = biological target: p12026-BSA-conjugate (human); assay: ELISA, plate coated with p12026-BSA-conjugate 4 µg/ml; serum dilution 1:3200
[2] = biological target: p12026-BSA-conjugate (human); assay: ELISA, plate coated with p12026-BSA-conjugate 4 µg/ml; serum dilution 1:100
[3] = biological target: p12026-BSA-conjugate (human); assay: ELISA, plate coated with p12026-BSA-conjugate 4 µg/ml; serum dilution 1:12800
[4] = biological target: p12026-BSA-conjugate (human); assay: ELISA, plate coated with p12026-BSA-conjugate 4 µg/ml; serum dilution 1:1600
[5] = biological target: p12026-BSA-conjugate (human); assay: ELISA, plate coated with p12026-BSA-conjugate 4 µg/ml; serum dilution 1:200
[6] = biological target: p12026-BSA-conjugate (human); assay: ELISA, plate coated with p12026-BSA-conjugate 4 µg/ml; serum dilution 1:6400
[7] = biological target: p12026-BSA-conjugate (human); assay: ELISA, plate coated with p12026-BSA-conjugate 4 µg/ml; serum dilution 1:800
[8] = biological target: p12026-BSA-conjugate (human); assay: ELISA, plate coated with p12026-BSA-conjugate 4 µg/ml; serum dilution 1:400
NTSR1 = NTSR1 (UniProt P30989); assay: cell-based or functional assay
Sequence of NTSR1 (P30989 whole entry): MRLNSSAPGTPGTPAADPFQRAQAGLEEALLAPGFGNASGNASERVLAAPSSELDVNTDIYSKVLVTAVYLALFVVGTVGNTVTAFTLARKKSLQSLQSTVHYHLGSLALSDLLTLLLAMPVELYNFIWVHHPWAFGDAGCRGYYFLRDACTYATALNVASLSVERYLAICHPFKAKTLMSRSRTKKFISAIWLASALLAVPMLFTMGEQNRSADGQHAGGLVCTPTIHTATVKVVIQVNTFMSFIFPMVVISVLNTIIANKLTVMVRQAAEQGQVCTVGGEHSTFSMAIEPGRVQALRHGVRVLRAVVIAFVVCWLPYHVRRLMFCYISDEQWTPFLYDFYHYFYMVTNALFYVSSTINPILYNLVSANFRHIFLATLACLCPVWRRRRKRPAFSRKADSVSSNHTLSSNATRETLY

Sequence of p12026-BSA-conjugate (human) (P02769 25-607 limits assumed): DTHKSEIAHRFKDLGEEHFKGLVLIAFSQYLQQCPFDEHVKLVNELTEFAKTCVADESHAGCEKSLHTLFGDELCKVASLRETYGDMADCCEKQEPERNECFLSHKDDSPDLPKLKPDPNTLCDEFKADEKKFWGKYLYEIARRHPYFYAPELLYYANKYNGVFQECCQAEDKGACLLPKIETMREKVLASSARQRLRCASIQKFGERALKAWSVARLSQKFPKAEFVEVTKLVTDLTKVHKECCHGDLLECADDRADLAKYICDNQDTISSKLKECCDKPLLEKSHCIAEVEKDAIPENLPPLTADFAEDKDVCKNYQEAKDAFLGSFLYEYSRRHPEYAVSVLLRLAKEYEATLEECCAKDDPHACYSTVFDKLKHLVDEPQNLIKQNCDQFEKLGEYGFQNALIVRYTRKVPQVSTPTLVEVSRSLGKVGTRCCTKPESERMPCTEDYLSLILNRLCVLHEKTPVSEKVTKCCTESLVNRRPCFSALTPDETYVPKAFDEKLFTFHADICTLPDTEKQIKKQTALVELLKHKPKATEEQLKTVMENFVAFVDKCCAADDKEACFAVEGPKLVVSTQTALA

| OD405nm [1] | OD405nm [2] | OD405nm [3] | OD405nm [4] | OD405nm [5] | OD405nm [6] | OD405nm [7] | OD405nm [8] | reduction of cell growth of CHO NTSR1 overexpressing cells (NTSR1) | Substance |
| --- | --- | --- | --- | --- | --- | --- | --- | --- | --- |
| 0.01 OD405nm | 0.032 OD405nm | 0.004 OD405nm | 0.008 OD405nm | 0.016 OD405nm | 0.009 OD405nm | 0.012 OD405nm | 0.016 OD405nm | – | normal serum (antibody) |
| – | – | – | – | – | – | – | – | 60% | NTS released or expressed by cancer cells (from UniProt P30990 24-163) (ligand) |
